Substitutions are numbered along the chain they refer to.
T1: Elongin BC complex (wild type rat Elongin B and C) (rat, UniProt P62870)
T1 chain 1: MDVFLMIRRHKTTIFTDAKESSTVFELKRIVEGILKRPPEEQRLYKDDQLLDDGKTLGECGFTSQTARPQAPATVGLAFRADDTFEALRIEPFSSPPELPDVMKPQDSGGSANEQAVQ
T1 chain 2: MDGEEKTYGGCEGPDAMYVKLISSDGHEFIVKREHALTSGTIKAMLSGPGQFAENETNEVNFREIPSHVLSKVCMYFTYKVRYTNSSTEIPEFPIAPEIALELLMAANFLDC

T2: wild type Elongin A (rat)
T2 chain: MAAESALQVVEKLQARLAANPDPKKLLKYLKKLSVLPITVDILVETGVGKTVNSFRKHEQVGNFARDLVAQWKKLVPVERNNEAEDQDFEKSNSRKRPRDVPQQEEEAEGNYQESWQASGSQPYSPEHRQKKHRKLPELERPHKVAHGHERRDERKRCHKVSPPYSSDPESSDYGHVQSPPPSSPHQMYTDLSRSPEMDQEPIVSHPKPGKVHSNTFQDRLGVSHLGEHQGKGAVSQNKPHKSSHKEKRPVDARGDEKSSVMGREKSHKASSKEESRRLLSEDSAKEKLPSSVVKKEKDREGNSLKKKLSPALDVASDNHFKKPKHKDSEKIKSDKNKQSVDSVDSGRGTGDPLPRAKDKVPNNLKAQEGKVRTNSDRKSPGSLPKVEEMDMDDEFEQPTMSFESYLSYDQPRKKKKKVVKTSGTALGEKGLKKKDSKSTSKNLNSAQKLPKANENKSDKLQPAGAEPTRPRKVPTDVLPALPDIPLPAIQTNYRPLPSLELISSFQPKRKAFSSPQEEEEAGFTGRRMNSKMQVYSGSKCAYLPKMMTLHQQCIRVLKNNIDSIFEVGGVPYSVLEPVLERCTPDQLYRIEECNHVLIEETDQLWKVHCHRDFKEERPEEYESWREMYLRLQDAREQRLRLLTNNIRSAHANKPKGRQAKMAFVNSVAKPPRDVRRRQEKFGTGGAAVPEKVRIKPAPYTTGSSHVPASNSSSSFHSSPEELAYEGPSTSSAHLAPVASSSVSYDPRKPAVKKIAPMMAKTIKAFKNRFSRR

B1: Elongin C internal deletion mutant C(Δ21-30) (other)
chain: MDGEEKTYGGCEGPDAMYVKVKREHALTSGTIKAMLSGPGQFAENETNEVNFREIPSHVLSKVCMYFTYKVRYTNSSTEIPEFPIAPEIALELLMAANFLDC
B2: Elongin C internal deletion mutant C(Δ91-100) (other)
chain: MDGEEKTYGGCEGPDAMYVKLISSDGHEFIVKREHALTSGTIKAMLSGPGQFAENETNEVNFREIPSHVLSKVCMYFTYKVRYTNSSTEILELLMAANFLDC
B3: Elongin C internal deletion mutant C(Δ51-60) (other)
chain: MDGEEKTYGGCEGPDAMYVKLISSDGHEFIVKREHALTSGTIKAMLSGPGNFREIPSHVLSKVCMYFTYKVRYTNSSTEIPEFPIAPEIALELLMAANFLDC
B4: Elongin C internal deletion mutant C(Δ61-70) (other)
chain: B3 chain with N51Q, R53A, I55N, P56E, S57T, H58N, V59E, L60V
B5: Elongin C internal deletion mutant C(Δ71-80) (other)
chain: MDGEEKTYGGCEGPDAMYVKLISSDGHEFIVKREHALTSGTIKAMLSGPGQFAENETNEVNFREIPSHVLVRYTNSSTEIPEFPIAPEIALELLMAANFLDC
B6: Elongin C internal deletion mutant C(Δ81-90) (other)
chain: B5 chain with V71S, R72K, Y73V, T74C, N75M, S76Y, S77F, E79Y, I80K
B7: Elongin C alanine scanning mutant C(Ala19-21) (other)
chain: T1 chain 2 with V19A, K20A, L21A
B8: Elongin C alanine scanning mutant C(Ala22-24) (other)
chain: T1 chain 2 with I22A, S23A, S24A
B9: Elongin C alanine scanning mutant C(Ala25-27) (other)
chain: T1 chain 2 with D25A, G26A, H27A
B10: Elongin C alanine scanning mutant C(Ala28-30) (other)
chain: T1 chain 2 with E28A, F29A, I30A
B11: Elongin C deletion mutant C(23-112) (other)
chain: SSDGHEFIVKREHALTSGTIKAMLSGPGQFAENETNEVNFREIPSHVLSKVCMYFTYKVRYTNSSTEIPEFPIAPEIALELLMAANFLDC
B12: C. elegans Elongin A mutant C.e.EloA(202-434) (other)
chain: KERQKVFAGRRKRVGEGVSTLVSLCQTVLMSHIDMIDHVGIVPFDLLKPVLDHASTDQLRHILDVNPMLVEDADEMFHEMVSREFPKYANREKSGWTWREMYDRLVEKKQKKENDKLEMLTSRIGKSNSAQSQGRQTMVIDMAHTRVRSKSFFNTVKDSQVKMSATPSALQLSQARKNVKIEGKAQLRTITPRGGGVPSTSRSRSNNNNNMNNGLVVKKTAPLMAKCKKMLKR
B13: wild type C. elegans Elongin A (other)
chain: MPETDEEKVRRYTECLMNGIDPKRALKRLYDLNVSPEVFKSADTVQCVKRYESSPELAKYAKRVRDKLLGGRKREKGGGEDDADIEHTALKKAKKEEVNLDEEFAEAMKSGVSAQASSAPRATVDYSKYKVVKRVEVKVEPKPEPVDVHEQQASSSSMSYQREHQKDYAPVVPTCKPSGQPKKAIPQSKSLHADENMFKPRKERQKVFAGRRKRVGEGVSTLVSLCQTVLMSHIDMIDHVGIVPFDLLKPVLDHASTDQLRHILDVNPMLVEDADEMFHEMVSREFPKYANREKSGWTWREMYDRLVEKKQKKENDKLEMLTSRIGKSNSAQSQGRQTMVIDMAHTRVRSKSFFNTVKDSQVKMSATPSALQLSQARKNVKIEGKAQLRTITPRGGGVPSTSRSRSNNNNNMNNGLVVKKTAPLMAKCKKMLKR

The binders below were run against wild type Elongin B (rat, UniProt P62870) (assay: refolded with wild type Elongin B; TSK DEAE-NPR HPLC, SDS-PAGE, silver staining).
Procedure: Figure 10A: FIG. 10A. […] Aliquots of the indicated column fractions were analyzed by SDS-PAGE, and proteins were visualized by silver staining. Figure 10B: FIG. 10B. N-terminal, C-terminal, and internal Elongin C deletion mutants were assayed for their abilities to form Elongin BC complexes as described.
~6 µg of Elongin B was mixed with ~6 µg of either wild type or mutant Elongin C and diluted 5-fold with 40 mM Hepes-NaOH (pH 7.9), 100 mM KCl, 2 mM DTT, 50 µM ZnSO_4, 0.1 mM EDTA, and 10% (v/v) glycerol. After incubation for 90 min on ice, the mixtures were dialyzed at 4° C. overnight against 40 mM Tris-HCl (pH 7.9), 0.1 mM EDTA, 10% (v/v) glycerol, and 40 mM KCl. Following dialysis, the mixtures were centrifuged at 60,000×g for 15 min at 4° C. The resulting supernatants were applied to TSK DEAE-NPR columns (35 mm×4.6 mm, Toso-Haas) pre-equilibrated in 40 mM Tris-HCl (pH 7.9), 0.1 mM EDTA, 1 mM DTT, 10% (v/v) glycerol, and 40 mM KCl and fractionated using a SMART microchromatography system (Pharmacia) at 8° C. The columns were eluted at 0.3 ml/min with a 3 ml linear gradient from 0.04 to 0.5M KCl in 40 mM Tris-HCl (pH 7.9), 0.1 mM EDTA, 1 mM DTT, and 10% (v/v) glycerol. Aliquots of each column fraction were analyzed by 10% Tris-Tricine SDS-polyacrylamide gel electrophoresis, and the proteins were visualized by silver staining.
B1: no binding.
B2: binds.
B3: binds.
B4: binds.
B5: binds.
B6: binds.
B7: binds.
B8: binds.
B9: no binding.
B10: no binding.
B11: no binding.

Biological target: T1, Elongin BC complex (wild type rat …)
Assay: refolded with rat Elongin B and C; TSK SP-NPR HPLC, SDS-PAGE, silver staining
Procedure: Figure 8A: FIG. 8A. Analysis of wild type and mutant C. elegans Elongin A wherein wild type or mutant C. elegans Elongin A was refolded with rat Elongin B and C and subjected to TSK SP-NPR HPLC as described. Aliquots of the peak column fractions were analyzed by SDS-PAGE, and proteins were visualized by silver staining. WT C.e. […] Figure 8B: FIG. 8B. ~2 pmol of human or C. elegans Elongin A proteins were refolded as described (Bradsher, et al., *J Biol Chem* 268: 25587–25593 (1993)) in the presence or absence of ~2 pmol of rat Elongin B and C. Aliquots of refolded protein were assayed for transcriptional activity in oligo dc-tailed template assays performed as described. Reaction mixtures contained no Elongin (lane 1); 3 and 9 μl of renatured human Elongin A without (lanes 2 and 3) or with (lanes 4 and 5) Elongin B and C; 3 and 9 μl of renatured wild type C. elegans Elongin A without (lanes 6 and 7) or with (lanes 8 and 9) Elongin B and C; 3 and 9 μl of renatured C.e. EloA(94–434) (SEQ ID NO:44) without (lanes 10 and 11) or with (lanes 12 and 13) Elongin B and C; 3 and 9 μl of renatured C.e. EloA (202–434) (SEQ ID NO:45) with (lanes 14 and 15) or without (lanes 16, and 17) Elongin B and C.
B12: binds.
B13: binds.

Biological target: T2, wild type Elongin A
Assay: refolded with wild type Elongin A and B; TSK SP-NPR HPLC, SDS-PAGE, silver staining
B1: no binding.

Source: US6084068, “Elongin A and C functional domains” (Oklahoma Medical Research Foundation, dated 2000)
